Patent US20150376282A1
Blank lines part the entries; values can stand above or below the molecule they belong to.

Experiments:
2F8-HG-Y275A (human) = assay: non-covalent nano-ESI MS, 0.01-10 µM, self-association
2F8-HG (human) [1] = assay: non-covalent nano-ESI MS, monomer/dimer equilibrium (CH3-CH3 dimerisation of half-molecules)
2F8-HG (human) [2] = assay: non-covalent nano-ESI MS, 1 µM, self-association
2F8-HG-L236V (human) = assay: non-covalent nano-ESI MS, 0.01-10 µM, self-association
2F8-HG-F405A (human) = assay: as above

percent monomeric at low concentrations (2F8-HG-Y275A (human)): 100%
Molecule: 2F8-HG-Y275A (antibody)

Kd (2F8-HG (human) [1]): 50 nM
percentage molecules present as monomers (2F8-HG (human) [2]): 15%
Molecule: 2F8-HG (antibody)

percent monomeric at low concentrations (2F8-HG-L236V (human)): 100%
Molecule: 2F8-HG-L236V (antibody)

percent monomeric at low concentrations (2F8-HG-F405A (human)): 100%
B1: 2F8-HG-F405A (antibody, part only; not given: 2F8 VH and light chain, part only)
heavy, part: ASTKGPSVFPLAPCSRSTSESTAALGCLVKDYFPEPVTVSWNSGALTSGVHTFPAVLQSSGLYSLSSVVTVPSSSLGTKTYTCNVDHKPSNTKVDKRVAPEFLGGPSVFLFPPKPKDTLMISRTPEVTCVVVDVSQEDPEVQFNWYVDGVEVHNAKTKPREEQFNSTYRVVSVLTVLHQDWLNGKEYKCKVSNKGLPSSIEKTISKAKGQPREPQVYTLPPSQEEMTKNQVSLTCLVKGFYPSDIAVEWESNGQPENNYKTTPPVLDSDGSFALYSRLTVDKSRWQEGNVFSCSVMHEALHNHYTQKSLSLSLGK
